In patent US8153134 one finds secreted beta-hexosaminidase, OD (405-570), DT808 mouse mast cells, cross-link and secreted beta-hexosaminidase, OD (405-570), DT808 mouse mast cells, no cross-link data, which are given here for 1 substance.

In the experiment the target is human MDL-1 (human) (UniProt Q9NY25). Put plainly: cell-based or functional assay.
Sequence of human MDL-1 (human) (Q9NY25 whole entry): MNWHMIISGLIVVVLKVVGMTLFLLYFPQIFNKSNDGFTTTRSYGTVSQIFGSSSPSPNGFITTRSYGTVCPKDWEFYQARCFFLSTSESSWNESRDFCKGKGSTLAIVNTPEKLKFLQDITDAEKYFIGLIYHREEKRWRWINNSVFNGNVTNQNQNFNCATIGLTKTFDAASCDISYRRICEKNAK

In the case of “rat isotype control mAb (rIgG1) (antibody)”, the secreted beta-hexosaminidase, OD (405-570), DT808 mouse mast cells, cross-link is 0.065 OD (405-570) and the secreted beta-hexosaminidase, OD (405-570), DT808 mouse mast cells, no cross-link was 0.1 OD (405-570).
